Results reported in patent US20220306765A1 (SUZHOU TRANSCENTA THERAPEUTICS, published 2022).
Like-named read-outs stand apart in the source and are kept apart here.

B1: 7C12-C (antibody, human IgG1, V domains shown)
VH: EFQLQQSGPELEKPGASVRISCKTSGYSFTGYNMNWVKQSNGESLEWIGNIDPYYGATRYNQKFKGKATLTVDKSSSTAYMQLKSLTSEDSAVYYCARSYYGNAFDYWGQGTTLTVSS
VL: DIVMTQSPSSLTVTAGEKVTMSCKSSQSLLNSGNQKNYLTWYQQKPGQPPKLLIYWASTRESGVPDRFTGSGSGTDFTLTISSVQAEDLAVYYCQNDYSFPFTFGSGTKLEIK
notes: also called chimeric 7C12
B2: 7C12 (antibody, V domains shown)
VH: EFQLQQSGPELEKPGASVRISCKTSGYSFTGYNMNWVKQSNGESLEWIGNIDPYYGATRYNQKFKGKATLTVDKSSSTAYMQLKSLTSEDSAVYYCARSYYGNAFDYWGQGTTLTVSS
VL: DIVMTQSPSSLTVTAGEKVTMSCKSSQSLLNSGNQKNYLTWYQQKPGQPPKLLIYWASTRESGVPDRFTGSGSGTDFTLTISSVQAEDLAVYYCQNDYSFPFTFGSGTKLEIK
notes: mouse hybridoma antibody; also called hybridoma antibody 7C12
B3: 26G6-C (antibody, human IgG1, V domains shown)
VH: EFQLQQSGPELEKPGASVKISCKTSGYSFTGYNMNWVKQSNGQSLEWIGHIDPYYVTTTYNQKFRGKATLTVDKSSSTAYMQLKSLTSEDSAVYYCARSFYGNAFDYWGQGTTLTVSS
VL: DIVMTQSPSSLTVTAGEKVTMSCKSSQSLFNSGNQKNYLTWYQQKPGQPPKLLIYWASTRESGVPDRFTGSGSGTDFTLTISSVQAEDLAVYYCQNDYSFPFTFGSGTKLEIK
notes: also called chimeric 26G6
B4: 12E9 (antibody, V domains shown)
VH: EFQLQQSGPELEKPGASVRISCKTSGYSFTGYNMNWVKQSNGESLEWIGNIDPYYGGTRYNQKFKGKATLTVDKSSSTAYMQLKSLTSEDSAVYYCARSYYGNAFDYWGQGTTLTVSS
VL: DIVMTQSPSSLTVTAGEKVTMSCKSSQNLLNNGNQKNYLTWYQQKPGQPPKLLIYWASTRESGVPDRFTGSGSGTDFILTISSVQAEDLAVYYCQNDYSFPFTFGAGTKLELK
notes: mouse hybridoma antibody; also called hybridoma antibody 12E9
B5: 12E9-C (antibody, human IgG1, V domains shown)
VH: EFQLQQSGPELEKPGASVRISCKTSGYSFTGYNMNWVKQSNGESLEWIGNIDPYYGGTRYNQKFKGKATLTVDKSSSTAYMQLKSLTSEDSAVYYCARSYYGNAFDYWGQGTTLTVSS
VL: DIVMTQSPSSLTVTAGEKVTMSCKSSQNLLNNGNQKNYLTWYQQKPGQPPKLLIYWASTRESGVPDRFTGSGSGTDFILTISSVQAEDLAVYYCQNDYSFPFTFGAGTKLELK
notes: also called chimeric 12E9
B6: 26G6 (antibody, V domains shown)
VH: EFQLQQSGPELEKPGASVKISCKTSGYSFTGYNMNWVKQSNGQSLEWIGHIDPYYVTTTYNQKFRGKATLTVDKSSSTAYMQLKSLTSEDSAVYYCARSFYGNAFDYWGQGTTLTVSS
VL: DIVMTQSPSSLTVTAGEKVTMSCKSSQSLFNSGNQKNYLTWYQQKPGQPPKLLIYWASTRESGVPDRFTGSGSGTDFTLTISSVQAEDLAVYYCQNDYSFPFTFGSGTKLEIK
notes: mouse hybridoma antibody; also called hybridoma antibody 26G6
B7: 11F12 (antibody, V domains shown)
VH: EFQLQQSGPELEKPGASVRISCKTSGYSFTGYNMNWVKQSNGESLEWIGYIDPYYGGTRYNQKFKGKATLTVDKSSSTAYMQLKSLTSEDSAVYYCARSYYGNAFDYWGQGTTLTVSS
VL: DIVMTQSPSSLTVTAGEKVTMSCKSSQSLLNSGNQKNYLTWYQQKPGQPPKLLIYWASTRESGVPDRFTGSGSGTDFTLTISSVQAEDLAVYYCQNDYSYPFTFGSGTKLEIK
notes: mouse hybridoma antibody; also called hybridoma antibody 11F12
B8: 11F12-C (antibody, human IgG1, V domains shown)
VH: EFQLQQSGPELEKPGASVRISCKTSGYSFTGYNMNWVKQSNGESLEWIGYIDPYYGGTRYNQKFKGKATLTVDKSSSTAYMQLKSLTSEDSAVYYCARSYYGNAFDYWGQGTTLTVSS
VL: DIVMTQSPSSLTVTAGEKVTMSCKSSQSLLNSGNQKNYLTWYQQKPGQPPKLLIYWASTRESGVPDRFTGSGSGTDFTLTISSVQAEDLAVYYCQNDYSYPFTFGSGTKLEIK
notes: also called chimeric 11F12

Legend:
[1] = molecular target: human CLDN18.2-mRFP G65P (human); test: FACS, transfected HEK293, 10 µg/ml antibody;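 also: antibody binding read by flow cytometry with a FITC-labelled anti-human IgG secondary, gated on RFP-positive cells, each mutant signal expressed against wild-type CLDN18.2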
Protocol: (§1) The transfected HEK293-CLDN18.2 or HEK293-CLDN18.1 cell were resuspended in PBS with 2% BSA at density of 10\hat{ }5/well, 100 μl/well. […] Next, cells were washed 3 times by FACS washing buffer and incubated with 100 μl/well goat anti-hIgG (H+L)-FITC (1:200 dilution) at 4° C. for another 30 min. Finally, cells were washed 3 times by FACS washing buffer and analyzed by Flow Cytometry. To analyze binding to CLDN18.2 transfected cells, the RFP positive cells were used for control gating.

[2] = molecular target: T1, human CLDN18.2-mRFP1, wild-type (human); test: FACS, transfected HEK293, 10 µg/ml antibody;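 also: antibody binding read by flow cytometry with a FITC-labelled anti-human IgG secondary, gated on RFP-positive cells, each mutant signal expressed against wild-type CLDN18.2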
T1 construct: human CLDN18.2 (amino acid 1-261) fused to mRFP1 (amino acid 1-225), transiently expressed in HEK293 cells; also called wild-type human CLDN18.2-mRFP
Protocol: as §1

[3] = molecular target: human CLDN18.2-mRFP Q29M (human); test: FACS, transfected HEK293, 10 µg/ml antibody;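 also: antibody binding read by flow cytometry with a FITC-labelled anti-human IgG secondary, gated on RFP-positive cells, each mutant signal expressed against wild-type CLDN18.2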
Protocol: as §1

[4] = molecular target: human CLDN18.2-mRFP L69I (human); test: FACS, transfected HEK293, 10 µg/ml antibody;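 also: antibody binding read by flow cytometry with a FITC-labelled anti-human IgG secondary, gated on RFP-positive cells, each mutant signal expressed against wild-type CLDN18.2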
Protocol: as §1

[5] = molecular target: human CLDN18.2-mRFP Q47E (human); test: FACS, transfected HEK293, 10 µg/ml antibody
Protocol: as §1

[6] = molecular target: human CLDN18.2-mRFP E56Q (human); test: FACS, transfected HEK293, 10 µg/ml antibody
Protocol: as §1

[7] = molecular target: human CLDN18.2-mRFP N45Q (human); test: FACS, transfected HEK293, 10 µg/ml antibody
Protocol: as §1

[8] = molecular target: human CLDN18.2-mRFP A42S (human); test: FACS, transfected HEK293, 10 µg/ml antibody
Protocol: as §1

[9] = molecular target: human CLDN18.2-mRFP N37D (human); test: FACS, transfected HEK293, 10 µg/ml antibody
Protocol: as §1

[10] = molecular target: T2, human CLDN18.2 (human); test: FACS, HEK293-CLDN18.2 cells
T2 construct: also called hCLDN18.2; Claudin-18 splice variant 2

[11] = molecular target: T2, human CLDN18.2; test: FACS, NUGC4 cells
[12] = molecular target: T3, human CLDN18.1 (human, UniProt P56856 1-261); test: FACS, HEK293-CLDN18.1 cells
T3 construct: on HEK293-CLDN18.1 cells; also called Claudin-18 splice variant 1; NP_057453.1

[13] = molecular target: T2, human CLDN18.2; test: FACS, HEK293-CLDN18.2 cells; remark: listed apart in the source
Protocol: (§2) Log-phase HEK293-CLDN18.2 and NUGC4 cells were re-suspended in PBS. After 3× cell wash by using FACS washing buffer (PBS+2% FBS), 100 μl/well diluted hybridoma Abs with a range from 400 nM to 0.002 nM were added into each well for incubation at 4° C. for 30 min. Again, cells were washed 3 times by using FACS washing buffer and then incubated with 100 μl/well goat anti-mIgG-FITC (1:400 dilution) at 4° C. for another 30 min. After a final 3× wash using FACS washing buffer, cells were analyzed by flow Cytometry.

[14] = molecular target: T2, human CLDN18.2; test: flow cytometry on HEK293-CLDN18.2 cells, goat anti-mIgG-FITC; unit taken from the concentration axis
Protocol: as §2

[15] = molecular target: T3, human CLDN18.1; test: FACS, hybridoma supernatant, HEK293-CLDN18.1 cells
Protocol: Log-phase CLDN18.1 expressing HEK293-CLDN18.1 cells were resuspended in PBS at a density of 10\hat{ }5/100 μl per well. After 3× cell wash by using FACS washing buffer (PBS+2% FBS), 100 μl/well hybridoma supernatant was added into each well for incubation at 4° C. for 30 min. Again, cells were washed 3 times by using FACS washing buffer and then incubated with 100 μl/well goat anti-mIgG-FITC (1:400 dilution) at 4° C. for another 30 min. After a final 3× wash using FACS washing buffer, cells were analyzed by flow Cytometry.

[16] = molecular target: T2, human CLDN18.2; test: flow cytometry on NUGC4 cells, goat anti-mIgG-FITC
Protocol: as §2

[17] = molecular target: T2, human CLDN18.2; test: flow cytometry on NUGC4 cells, goat anti-mIgG-FITC; remark: listed apart in the source
Protocol: as §2

Chain of human CLDN18.2-mRFP Q29M (human) (chain, as listed by the source Q29M Q29M limits assumed): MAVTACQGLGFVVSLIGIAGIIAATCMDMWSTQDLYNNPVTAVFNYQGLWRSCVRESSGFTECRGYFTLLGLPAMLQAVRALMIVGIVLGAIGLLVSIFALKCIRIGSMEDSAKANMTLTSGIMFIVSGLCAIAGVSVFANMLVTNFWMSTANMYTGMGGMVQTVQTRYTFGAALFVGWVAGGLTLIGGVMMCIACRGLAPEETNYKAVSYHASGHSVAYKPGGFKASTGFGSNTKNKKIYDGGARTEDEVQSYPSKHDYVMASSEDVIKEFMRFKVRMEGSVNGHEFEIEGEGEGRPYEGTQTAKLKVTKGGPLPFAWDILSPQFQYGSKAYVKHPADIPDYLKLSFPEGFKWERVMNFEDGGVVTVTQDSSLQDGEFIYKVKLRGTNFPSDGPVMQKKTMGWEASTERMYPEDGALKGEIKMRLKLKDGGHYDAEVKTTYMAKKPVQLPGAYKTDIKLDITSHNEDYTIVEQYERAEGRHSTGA
Chain of human CLDN18.2-mRFP L69I (human) (chain, as listed by the source L69I L69I limits assumed): as the sequence (chain, as listed by the source Q29M Q29M limits assumed) above, with M29Q, L69I counted along it
T3 sequence (P56856 whole entry, canonical isoform): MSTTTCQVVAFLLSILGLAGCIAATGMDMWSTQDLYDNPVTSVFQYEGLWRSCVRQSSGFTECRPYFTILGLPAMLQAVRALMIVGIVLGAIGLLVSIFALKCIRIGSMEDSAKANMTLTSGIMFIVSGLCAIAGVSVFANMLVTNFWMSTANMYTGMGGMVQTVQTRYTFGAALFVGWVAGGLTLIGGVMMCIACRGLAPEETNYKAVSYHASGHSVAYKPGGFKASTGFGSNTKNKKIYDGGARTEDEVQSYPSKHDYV
Chain of human CLDN18.2-mRFP Q47E (human) (chain, as listed by the source Q47E Q47E limits assumed): as the sequence (chain, as listed by the source Q29M Q29M limits assumed) above, with M29Q, Q47E counted along it
Chain of human CLDN18.2-mRFP E56Q (human) (chain, as listed by the source E56Q E56Q limits assumed): as the sequence (chain, as listed by the source Q29M Q29M limits assumed) above, with M29Q, E56Q counted along it
Chain of human CLDN18.2-mRFP A42S (human) (chain, as listed by the source A42S A42S limits assumed): as the sequence (chain, as listed by the source Q29M Q29M limits assumed) above, with M29Q, A42S counted along it
Chain of human CLDN18.2-mRFP G65P (human) (chain, as listed by the source G65P G65P limits assumed): as the sequence (chain, as listed by the source Q29M Q29M limits assumed) above, with M29Q, G65P counted along it
Chain of human CLDN18.2-mRFP N45Q (human) (chain, as listed by the source N45Q N45Q limits assumed): as the sequence (chain, as listed by the source Q29M Q29M limits assumed) above, with M29Q, N45Q counted along it
Chain of human CLDN18.2-mRFP N37D (human) (chain, as listed by the source N37D N37D limits assumed): as the sequence (chain, as listed by the source Q29M Q29M limits assumed) above, with M29Q, N37D counted along it

| Binder | binding percentage vs wild-type CLDN18.2 [1] [%] | binding percentage vs wild-type CLDN18.2 [2] [%] | binding percentage vs wild-type CLDN18.2 [3] [%] | binding percentage vs wild-type CLDN18.2 [4] [%] | binding percentage vs wild-type CLDN18.2 [5] [%] | binding percentage vs wild-type CLDN18.2 [6] [%] | binding percentage vs wild-type CLDN18.2 [7] [%] | binding percentage vs wild-type CLDN18.2 [8] [%] | binding percentage vs wild-type CLDN18.2 [9] [%] | EC50 [10] [µg/mL] | EC50 [11] [µg/mL] | binding result [12] | EC50 [13] [µg/mL] | EC50 [14] [µg/mL] | binding result [15] | EC50 (read off the curve) [16] [µg/mL] | EC50 (read off the curve) [17] [µg/mL] |
| --- | --- | --- | --- | --- | --- | --- | --- | --- | --- | --- | --- | --- | --- | --- | --- | --- | --- |
| B1 | 79.4 | 100 | 83.5 | 90.4 | 74.7 | 0.48 | 52.1 | 38.7 | 80.2 | 0.63 | 13 | no binding | – | – | – | – | – |
| B2 | – | – | – | – | – | – | – | – | – | – | – | – | 1.08 | 0.417 | no binding | ~0.5 | – |
| B3 | 119 | 100 | 107 | 79.7 | 116 | 0.34 | 88.7 | 82.2 | 118 | 1.1 | 67.1 | no binding | – | – | – | – | – |
| B4 | – | – | – | – | – | – | – | – | – | – | – | – | 0.52 | – | no binding | – | ~2 |
| B5 | 96.7 | 100 | 106 | 58.1 | 89.1 | 0.35 | 50.8 | 55.1 | 103 | 0.65 | 9.37 | no binding | – | – | – | – | – |
| B6 | – | – | – | – | – | – | – | – | – | – | – | – | 0.76 | – | no binding | – | ~2 |
| B7 | – | – | – | – | – | – | – | – | – | – | – | – | 0.82 | 0.605 | no binding | ~1 | – |
| B8 | 92.7 | 100 | 108 | 74.3 | 86.1 | 0.27 | 57.4 | 56.9 | 102 | 0.61 | 10 | no binding | – | – | – | – | – |
